Our source for the protein production values is a protein production outcome set (Wang et al. 2014).

This series is described as follows: label from the status in PepcDB records.

As to “MKIRVDDITDQPKILSFQEPSEAFPSLAELQATGESEFLSPLMVELAVSKEYGHIRVKGSVAVKIRFVCSRCLVPFDADISSAFTMFYSEGSRIDSDEDEIELAEEDLVSVFYEGDEIDFAPEIAEQVIMELPLKPLCGEGCKGLCVTCGADLNEGECGCERTTFNVKFSALKNFKVEKLEHHHHHH”, the protein production result is listed as “not failed”.

“MKISIITAVYNDPRVERCLDSVASQQGNFEVEHIVVDSESTDDTVDVIEQYENHIDCLISEPDDGMYDAINKGIEAATGDVIGLLNADDYYQDQRVLHDVASQLAETGADACYGDLVYVDADDDVVRYWKSDEYSRYKLYYGWMPPHPTFFVRHEIYERHGGFDLSYEISADYELMIRLLLNTDISVTYLDRVLVRMELGGMSNQSIENMLTVIEDMYRGWKKHNRLGRFVAPFLHPVEKVPQFIRSPPGEKEGTLEHHHHHH”: the protein production entry was “failed”. For “MKITTKGRYGLTITLELAKRIGDGPISLRSIAQDKNLSEHYLEQLIGPLRNAGIVKSIRGAHGGYVLNGDPEKITAGDIIRTLEGPIVLVESMEDEEAAQRELWTRMRNAVRDVLDQTTLSDLLKHSTDSELTDGYMFYI”, the protein production result is reported as “not failed”.

Regarding “MKITVIVPTYRRTKDLTRCLESLEKQSRPADEVLVVVRDTDVETWQFLETIAPHSLPLHTTTVRVPGVVAAMNAGLDIAQGDIIAFTDDDAAPHSNWLAQIETHFLAHEQIAGVGGRDWVYHGDRLEDGTCPVVGQVHWFGRVIGNHHIGIGKPREVDVLKGVNMSFRRSAVHGLRFDQRMLGTGAQVHFEVAFCLALKRAGWKLIYDPQIGVNHYLEHHHHHH”, the protein production result is “failed”. In the case of “MKKGTVLNSEISSVISRLGHTDTLVVCDAGLPIPNSTARIDMALTQGVPSFMQVVDVVTREMQVEAAILATEIKQQNPQLHETLLTHLEQLQQHQGNTIKISYTTHEQFKKLTADSQAVIRSGECSPYANVILCAGVTF”, the protein production entry was “not failed”. Regarding “MKKIATATIATAGIATFGLAHQDADAAENNNGYNPNDPYSYSYTYTIDQQGNYHYEWQGNWSPSQAQQGGQQNTGNQAVNNTQSNNNYNYNYNNNQSNQNTQSYTANNNAGGGLGASYSTSDRNVKVTTQNAPTTQSTSSNASSSSSSEALAGKSSGGSNLYTAGQCTYYVYDKVGGKIGSTWGNANNWATAAAADGYTVNNTPKAGAVMQTSQGAYGHVAYVESVNDDGSVKVSEMNYNGGPGVVSSRTISAGQAGSYNYIS”, the protein production result is “failed”.

As to “MKKIKALALFSGGLDSLLSMKLLIDQGIEVTALHFNIGFGGNKDKREYFENATAQIGAKLLVCDIREQFFNDVLFKPKYGYGKYFNPCIDCHANMFRNAFYKMLELNADFVLSGEVLGQRPKSQRKEALNQVRKLVREVGEEARFDPVLDRTQAGGKKPQFLDELLLRPMSAKLLEPTFMEKKGFVDREKLLDVSGRGRSRQLQMIKDYGLKYYEKPGGGCLLTDIQVSNKIKNLKEYREMVFEDSVIVKNGRYFVLPHNARLVVARNEEENHKLDIQHPLMDKIELLNCKGPLSLVDKNASKEDKELAGRIALGYAKTLKNQAYLIQIGDEKRELYPLDKENAREYLFA”, the protein production entry is given as “failed”. For “MKKILALILIIYSSSVFSHFSHFEPRIIHLYQDNQDTIILMRMPLPLILLDENWKGIDSKQNIPYTNKVNNSGYLIDPEKITKNLDDFKKSITPGYTIKKNGVVQNYHIESINIFNSDDRKPFSSLKTAEENFTSDVTIRPSATKLFDAGIDIKLRISNTSVINDDISISSILGDKFNAINKLANIINLHRDIANESVTTTLGILDYSSTHLPSMTQQLINGFSDGFIHILIGLDHVLFVLLLFYSAASFLKLLSLATAFTFGHSFSLFFGDNIAIASPIFIPGIELLIALTIAFTAIALLLKKAQHLGTTPLLVIGVIHGFGFSFVFNELEKEGAQTSITNLLSFNFGIEAGQLFIYALAFTMTILIKKQTVLVKKLPYYVSVCALVISAYWVVTRSMPLFDYIVI”, the protein production entry is “failed”. For the sequence “MKKILFCLPLLLLALQSCEIEDEYMYDKGLYTIDWDAAADSSSVTLIDRFWNTEENYFNYGNDGSIKDFHYWPQAHAMDVMIDAYNRTGDSKYSDLFDKWYVGIKAKNGGSYWNNFYDDMEWIALTMIRLYEVTDENKYLETSQEMWNEIKTGWNDYAGGGIAWTHDQLWSKNACSNGPAALIAARLYRINGNQEDLDWAVNIYKWERENLFNPATGAIYDNVNGETGELSTLSLSYNQGTFLGAAYELYKITGEESYLKDARKAANFAISNSSMIDTGNNLLRDEGDGDGGLFKGIFMRYYVQLIMEPNLDPIYKKKFITFFNNNAEILWRKGINKLDLLYNTNWAMNNSGNNHLTTQTSGCTLIEAKALFEKSLK”, the protein production result is recorded as “failed”. The value for “MKKILVHGVKEKTPLGFCDVPRKNLLDFLRDMKSISVPNEPRYKPLRKIHQAASDGDTERLQRMISLGKHSVHDRDFKERTALHFACACGQVEVVSILLRNNCDIDAADMNFITPLMKAVQNWTYECVCILLKHGADPNRKDKNGNTSLHYAVSEDNQTLAKCLLKYSANMEQKNKDGFTPLLLALKENKIEMAKFLVKMGANIHVFDDMRRNTLLYAIRWDSKDMVNLLLDEGIDFFFRDVFGWTALRYAIEGTSKGSREILMNYDEMLRRKNKDGIPEYKFFEDKSLDKHPNNPTSGCTFPKSNENACKFDDELDISKYVLGTCPNNIHGAGEEGDKSETKKAADVQVWTNPTLKSSTKGKVPNLNEVGTMTESHHFIKESDLEIESLVETFSYDNEDKQSMSDDGHFSGTTPKWCQNDTNRKITVQDCMYPNLKSPTEGKIPTRSKAGKMAESAHFIIESDLEIESLEETVSCDSEDKQLLV” was “failed”; that for “MKKIRLSKFIKMIVVILFLISVAASFYFFHVAQVRDDKSFISNGQRKPGNSLYAYDKSFDKLLKQKIEMTNQNIKQVAWYVPAVKKTHKTAVVVHGFANSKENMKAYGWLFHKLGYNVLMPDNIAHGESHGQLIGYGWNDRENIIKWTEMIVDKNPSSQITLFGVSMGGATVMMASGEKLPSQVVNIIEDCGYSSVWDELKFQAKEMYGLPAFPLLYEVSTISKIRAGFSYGQASSVEQLKKNNLPALFIHGDKDNFVPTSMVYDNYKATAGKKELYIVKGAKHAKSFETEPEKYEKRISSFLKKYEK” was “failed”; that for “MKKISVKFNQKQIFFGIIGLLLLGIIGIFAYKLNEYFSEPVIKAKSINLDASPSPKSKIIERLKKDQKIKVLKKNNNTDWWQVEIGSQKGWVASWLIQKKNYNAKNAGRLAEATIVLDPGHGGVDSGTQASNGAMEKTYTLRTALKVYKLLKAKNVHVIMTRHTNKTVALASRPALSNRVKANIYISFHFNSAGEQNAAEGYEVFKYNHNANSFASTIDKQFNNLPLYNRGVSFGNFEVLRDNKRPAILVEMGFMDSDYDFSYIQKSSYQQKVANDVTKSLTSYFN” was “failed”.

In the case of “MKKKFIITFILSLALFAGIFWVANKVLDIMELTSKVEFVGSDLGEGNNIEQRVENELLFLVLGLDSDDFSGATTEQNRTDTMILCKVNFDTGKIDILSIPRDSRVMVNGKLDKINHAHHFGGLKLAMKTTRDFLNLDIDYYVRVNFFSVKDIVDALGGVEVDVPVQVDVAEDNVHLKPGKQVLNGKQALQFARFRAGYKEGDVGRVKAQQILIKALVKELTKAKNIAKIPEILEVVKKTVNTNIPFSTIAKLSLKVNNLSEDKINTQIVPGESAYINNTSYFIPDRSKLNAIVKEMFSDYLLNKSGSSQVDTDKNKNNTNTKNNNNKNNNTNNRNNSNNNKNNNNKNNKNNKNNNR”, the protein production result was “failed”. The value for “MKKKILIPVFASVMALSVSSIVNADEVNDSSQNKDDKTNTELNLGEYKEVKYKVAKIKDGVAIKIREEGQVQNIAYSGDEFTVLGTQGEWVKVKVEDGEGWLATRYVDISEGVGYTNADKVNLRKDKSESSEVIEELEKGSSLLVLEDNGDWLKVKDGETEGYVKSSYISDKAPVIEEPQVNPSIDQNVDSTNNNQQNNANTNQQNNNSNVPTANSNAVQAVLNLAYSKQGCPYVWGAEGPNTFDCSGFTQYVYRNAVGKNIPRTSKAQSKYGQTVSKANLQPGDLVFFTTNGSGSVSHVGIYVGGGNMIHSPSTGKTVSVTSINSSYYTARFVTAKRIL” was “failed”. With “MKKKLGLLAMVVALMAIATGCSETGQPITSKSTGIWNEYFVYPLSQLITYFADLFNSNYGLAIVITTLIIRFALLPLMIKQTKSTKAMQALQPEMVKLKEKYSSKDQATQQKLQQEMMQLYQKNGVNPLAGCLPIFVQMPILFAFYHAIMRTAEIKQHSFLWFDLGHADPFYILPVVAAITTFIQQKLAMAGTAGQNPQMAMMLWLMPIMILIFAINFPAALSLYWVVGNIFGIAQMYFIKGPEIKASKAGKAGGSSK”, the protein production result is on record as “failed”. For “MKKLAIVIPAYKVDFFETVLFSLAQQTCKDFTVYIGEDCSRDDFKSLIEQYSKQLDIVYRRFEVNFGGHDLVAQWNRCIQLTQNEPWLWLFSDDDIMGPRCVEYFFNTIAIDNGAFDIYHFDVKIVDCENQIVRIPTVYPSVIDSETFYRRKASARLDSFVVEYIFLRDIYNCTGGFQHFDLAWGSDIATWVKIGADKGIKTISGDYVYWRKSKKNITPNMDNKMVLRKLTADIEFTHWINEFFHKSSVYRFTKYAFFRLVVHYSQAISKSQIRLLLDKAVGKNIISFNDAFIINWTYRFIQLAKRVKDVLYFLEHHHHHH” the value was “not failed”; for “MKKLDASTAVSLTGMPELERIVESLCTPESYEAVYHQSLHGSPMPSLEALTELMARLRAALFPGYFGASNIVLESMRYHLAANLDSIYRILAEQVRRGGCFACADYATDCQNCESHSQETAMEFMRALPRIRQLLATDVKAAYEGDPAAKSPGETIFCYPSIYAMIHHRIAHELYRLDVPVIPRIISEMAHSRTGIDIHPGATVGEEFFIDHGTGVVIGETCIIGRGCRLYQGVTLGALSFPKDGGGALIKGIPRHPILQDGVTVYAGATILGRVTIGAGAIVGGNVWVTHDVAPGAKVVQQKSSPPAAEDRMVGTKNGTPKA”, “failed”. The value for “MKKLIFLTLSIVSFNNYAVDFVYRVDSTPPDVIFRDGFSLLGYNRNFQQFISGRSCSGGSSDSRYIATTSSVNQTYAIARAYYSRSTFKGNLYRYQIRADNNFYSLLPSITYLETQGGHFNAYEKTMMRLQREYVSTLSILPENIQKAVALVYDSATGLVKDGVSTMNASYLGLSTTSNPGVIPFLPEPQTYTQQRIDAFGPLISSCFSIGSVCQSHRGQRADVYNMSFYDARPVIELILSK” was “failed”; that for “MKKLLTKGQIAILVIFSVLIIDQVIKIWIKTHMYWHESIRITDWFYIYFTENNGMAFGMELFGKLFLTTFRIVAVGLIGWYLYKIVKRGLKTGYIICVSLILTGALGNIIDSVFYGVIFNESTHSQIASFMPDGGGYSTWFYGKVVDMFYFPIIDTNWPTWMPFVGGEHFIFFSPIFNFADAAISCGIIALLLFYSKYLNDSYHHSVTKK” was “failed”; that for “MKKLLVIRNDKIGDFMLCFPAFMMLKQSMPNIEITALVPNYTAPLAELCPAIDHLIIDNTDKQDPIAFKQVQQAVQNGQFDAVICFVSSWYNAKLTWQSGIRYRLAPATKLFQFLYNHRLTQRRSQSIKAESEYNLDLARAFLIDHHMMPVEPQLEHHHHHH” was “not failed”. The value for “MKKLMITQEAGVATVLIKNPPVNILTIDLINELNAFILSLKDDRETKVVVFKSFHEAFFIAHLDLNVINGTSGGQAASIEFNHMIANIKAMKQLSIAVVDGVARGGGNEFVMACDLAYGTENSAFAQPELYINIPTGGQGAVQFARRLGKGKALQALLTGADFTAQQAETLNIITQFVLKAELDVFLAQLLSVIVGWEIRDIVMYKEIIAASIKDEAVGTELELRYFLERAREEKTQTIIAAFLKHGGQTEREAKDMQGIFVDTAAELSK” was “failed”.
